The values that follow come from patent publication US7728193B2, “Phytochrome-interacting protein and a use thereof” (Genomine Inc., priority 2004, dated 2010).

Data set [1] is described as follows: In vitro phosphatase assay: enzymatic activity of PAPP5 and its domain fragments on ρNPP. It counts as biochemical. The note with it: in the presence of 100 μM arachidonic acid. As to the method:
In order to examine whether the inventive PAPP5 protein has enzymatic activity, an enzymatic assay was performed using […] ρ-nitrophenyl phosphate (ρNPP) as a substrate. First, the GST-PAPP5 fusion protein purified in Example <4-1> was prewarmed at 30° C. for 1 minute. The prewarmed enzyme solution was added to 100 μl of kinase/phosphatase (KP) buffer (20 mM Tris-HCl pH 7.5, 30 mM MgCl2, 1 mM EDTA, 1 mM EGTA, 0.1% β-mercaptoethanol, 0.1% ethanol) containing O-400 mM ρNPP to initiate a reaction. To examine the autohydrolysis of ρNPP at each substrate concentration, the GST-PAPP5 enzyme solution was not added to a control group. After reaction at 30° C. for 15 minutes, 900 μl of 0.25N NaOH was added to terminate the reaction. The absorbance at 410 nm was measured. After subtracting the absorbance value of the control reaction solution containing all the components except for the enzyme from that of the reaction solution containing the enzyme, the rate was calculated using a millimolar extinction coefficient (17.8) of ρ-nitrophenolate ions.
Thus, in order to confirm if PAPP5 also have this property, the present inventors examined the phosphatase activities of GST-PAPP5, GST-TPR and GST-PP2Ac in the same manner as in Example <6-1>. At this time, the concentration of ρNPP was 100 mM.

The target in data set [2] is T1, Arabidopsis thaliana phytochrome A (Arabidopsis thaliana, UniProt P14712).
T1 construct: expressed in transfected cells; host or cells: EGY48 yeast strain with pSH18-34 reporter
T1 sequence (P14712 1-1122): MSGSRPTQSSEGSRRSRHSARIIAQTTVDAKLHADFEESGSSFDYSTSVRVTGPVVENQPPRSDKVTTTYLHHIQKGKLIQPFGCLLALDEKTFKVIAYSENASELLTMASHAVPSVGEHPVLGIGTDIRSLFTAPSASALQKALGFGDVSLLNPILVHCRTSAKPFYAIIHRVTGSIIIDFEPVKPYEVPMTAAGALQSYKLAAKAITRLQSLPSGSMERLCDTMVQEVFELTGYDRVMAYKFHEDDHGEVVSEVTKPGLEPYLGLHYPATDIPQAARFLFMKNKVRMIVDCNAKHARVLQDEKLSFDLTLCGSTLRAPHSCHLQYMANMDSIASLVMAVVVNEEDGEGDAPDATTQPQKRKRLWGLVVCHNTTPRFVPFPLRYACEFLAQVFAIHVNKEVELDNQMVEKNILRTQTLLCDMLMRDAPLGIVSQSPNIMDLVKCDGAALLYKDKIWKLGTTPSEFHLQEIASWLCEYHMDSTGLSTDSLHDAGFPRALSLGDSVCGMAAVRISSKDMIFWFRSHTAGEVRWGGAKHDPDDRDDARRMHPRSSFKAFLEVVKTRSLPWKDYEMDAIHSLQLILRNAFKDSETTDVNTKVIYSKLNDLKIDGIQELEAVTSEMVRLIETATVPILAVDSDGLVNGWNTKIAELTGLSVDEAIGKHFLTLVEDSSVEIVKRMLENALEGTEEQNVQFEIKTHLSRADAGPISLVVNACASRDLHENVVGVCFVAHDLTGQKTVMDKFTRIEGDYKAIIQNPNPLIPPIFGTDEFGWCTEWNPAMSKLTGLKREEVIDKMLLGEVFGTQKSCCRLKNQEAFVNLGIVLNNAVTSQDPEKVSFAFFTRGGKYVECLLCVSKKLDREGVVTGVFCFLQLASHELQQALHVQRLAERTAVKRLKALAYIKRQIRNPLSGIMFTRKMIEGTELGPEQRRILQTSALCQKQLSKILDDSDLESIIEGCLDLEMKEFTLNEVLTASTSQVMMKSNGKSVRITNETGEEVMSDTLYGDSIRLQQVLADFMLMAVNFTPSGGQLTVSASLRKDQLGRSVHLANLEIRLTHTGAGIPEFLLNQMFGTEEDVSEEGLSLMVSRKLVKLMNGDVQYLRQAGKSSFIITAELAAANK
The experiment in a line: Yeast two-hybrid analysis of specificity of interaction. The conditions noted are these: EGY48 yeast, Leu-drop out and X-gal media. The class given is cell-based. The text has this:
A pGilda vector and a pJG4-5 vector (OriGene Technologies) were used to prepare a prey and a bait, […] (see FIG. 4). In this case, as control groups to examine specific binding, hepatitis C virus (HCV) protein NS5A(N) (distributed from professor S K Jang, Department of Life Science, Pohang University of Science and Technology, Korea) and another plant protein SPINDLY(SPY) having the TPR domain (Jacobsen, S. E., et al., Proc. Natl. Acad. Sci. U.S.A. 93:9292-9296, 1996) were used. Furthermore, the prey and the bait were interchanged to observe protein-protein binding by a reciprocal method. The prepared prey and bait together with a pSH18-34 reporter plasmid (OriGene Technologies) were co-introduced into an EGY48 yeast strain (OriGene Technologies). Next, the transformants were selected on a media containing X-gal (5-bromo-4-chloro-3-indolyl-β-D-galactopyranoside; Rose Scientific Ltd.). Plate-growth assays were performed on Leu-drop out media and X-gal media.

The target in data set [3] is T2, phytochrome A (Arabidopsis thaliana, UniProt P14712).
T2 sequence (P14712 1-1122): T1 sequence (P14712 1-1122)
T2 sequence (Q84XU2 1-484 isoform Q84XU2-2 partner): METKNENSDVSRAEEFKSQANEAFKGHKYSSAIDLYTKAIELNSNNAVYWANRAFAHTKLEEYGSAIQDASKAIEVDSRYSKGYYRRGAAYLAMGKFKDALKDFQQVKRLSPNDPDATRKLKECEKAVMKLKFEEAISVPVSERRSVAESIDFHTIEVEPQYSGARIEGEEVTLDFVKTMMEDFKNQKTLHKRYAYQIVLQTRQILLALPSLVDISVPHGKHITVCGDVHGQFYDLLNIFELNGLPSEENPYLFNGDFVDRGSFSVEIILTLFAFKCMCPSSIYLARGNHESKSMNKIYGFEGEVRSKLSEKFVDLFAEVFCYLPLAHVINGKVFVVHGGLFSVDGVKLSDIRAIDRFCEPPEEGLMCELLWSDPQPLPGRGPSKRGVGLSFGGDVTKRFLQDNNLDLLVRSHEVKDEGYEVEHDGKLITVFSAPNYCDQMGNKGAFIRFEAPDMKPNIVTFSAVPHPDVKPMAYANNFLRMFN
Description: In vitro binding assay (GST pull-down of 35S-labeled TnT protein). The note with it: 1 μg GST-PAPP5 fusion protein, 4° C.

For the substance “PAPP5: type 5 serine/threonine protein phosphatase of Arabidopsis thaliana interacting with phytochromes, SEQ ID NO: 4”, in data set [1], the “Km (Michaelis-Menten)” value is reported as 160 mM ρNPP and the “Vmax (Michaelis-Menten)” value turned out to be 22 μmmol Pi released/min/mg. The “interaction with phytochrome A in yeast two-hybrid” value in data set [2] is recorded as “interacted specifically”. The “binding to phytochrome A” value in data set [3] is recorded as “has the property of binding”.
